Common to all, as to settings: both partners purified
The target of assay [1] is T1, huUHRF1-PHD(296–367), PHD finger of human UHRF1 with the additional N-terminal zinc finger (human, UniProt Q96T88 296-367).
T1 construct: Vector pHGGWA (Gateway); also called ICBP90 PHD finger
T1 sequence (looked up): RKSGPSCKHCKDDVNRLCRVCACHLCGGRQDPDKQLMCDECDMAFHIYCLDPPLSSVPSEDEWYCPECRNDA
As to the kind of experiment: crystal structure; huUHRF1-PHD(296–367) at 606 µM with a 10-fold excess of H3 peptide (1–8); vapor diffusion at 17°C, 0.1 M Tris pH 8.5, 0.2 M MgCl2, 30% PEG 4000; 1.95 Å.

For assay [2], the target named is T2, huUHRF1-PHD(296–367) D334A (human, UniProt Q96T88 296-367, D334A).
T2 sequence (looked up): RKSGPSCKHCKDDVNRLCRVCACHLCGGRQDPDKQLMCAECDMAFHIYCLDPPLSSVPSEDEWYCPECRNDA
Kind of assay: ITC; 20°C; histone peptides (1–12Y, 1.5–2 mM) injected into huUHRF1-PHD (0.12–0.18 mM); 20 mM Tris pH 7, 150 mM NaCl, 0.5 mM TCEP, 25 µM ZnCl2, 0.1 mM PMSF. In general terms: ITC needs no label: the signal is the heat of the interaction.

Assay [3] deals with T3, huUHRF1-PHD(296–367) D337A (human, UniProt Q96T88 296-367, D337A).
T3 sequence (looked up): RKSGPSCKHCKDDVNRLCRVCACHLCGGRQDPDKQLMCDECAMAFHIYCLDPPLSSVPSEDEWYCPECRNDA
The description is as above.

Assay [4] concerns the target T1, huUHRF1-PHD(296–367), PHD finger of …. The assay is described as above.

Where no end group is shown, it is not given here. Me3 = trimethyl-lysine

In general, Kd refers to the equilibrium constant for the complex coming apart. Read a high Kd as lower affinity.

B1: short histone H3 peptide including residues 1–8, unmodified (peptide, UniProt P68431 2-9, looked up)
peptide: ARTKQTAR
notes: histone H3 N-terminal tail, residues 1-8 (five of the eight seen in the map); also called unmodified histone H3 peptide; histone H3 tail
With B1, the binding result in assay [1] is given as “binds”.

B2: histone H3 peptide (1–12Y), unmodified (peptide)
peptide: ARTKQTARKSTGY
notes: histone H3 N-terminal tail, residues 1-12; tyrosine after residue 12, read from the label '1–12Y'; also called unmodified H3; H3K4me0
In the case of B2, the figures for the Kd in assay [2], in assay [3] and in assay [4] were above 500 µM, around 70 µM and 7.9 µM, respectively. Besides, the dH in assay [4] is -17.6 kcal/mol.

B3: histone H3 peptide (1–12Y) with K4 mutated to alanine (peptide)
peptide: ARTAQTARKSTGY
notes: histone H3 N-terminal tail, residues 1-12 with K4A; tyrosine after residue 12, read from the label '1–12Y'; also called H3K4A
In the case of B3, in assay [4], the Kd turned out to be 17 µM and the dH was -14.1 kcal/mol.

B4: histone H3 peptide (1–12Y) with trimethylated K4 (peptide)
peptide: ARTK(Me3)QTARKSTGY
notes: histone H3 N-terminal tail, residues 1-12; tyrosine after residue 12, read from the label '1–12Y'; also called H3K4me3
For the molecule B4, in assay [4], the affinity, expressed as Kd, was 25.9 µM and the dH was -11.6 kcal/mol.

For the origin of these results see paper PMC3214078, “The PHD Finger of Human UHRF1 Reveals a New Subgroup of Unmethylated Histone H3 Tail Readers” (PLoS ONE, 2011).
